Test results published in publication PMC9772228, “Structure of a RecT/Redβ family recombinase in complex with a duplex intermediate of DNA annealing”.
Where a chain is given by its changes, count along the chain named.

Key:
Assay in all cases: EMSA; EMSA: PBS pH 7.4 (or KH2PO4/10 mM MgCl2 pH 6.0), 3.6 or 5 uM protein, 25 uM nt DNA, 37 C 15 min per strand, 0.8% agarose 1x TBE; cryo-EM: 20 mM KH2PO4 (Results: 10 mM), 10 mM MgCl2 pH 6.0, 37 C; native MS: 100 mM ammonium acetate pH 7, 37 C
Conditions in all cases: protein: recombinant, tags: N-terminal 6His vector tag (20 aa) retained, chain copies: 10
LiRecT K215A/W216A = molecular target: T1, LiRecT K215A/W216A (Listeria innocua CLIP 11262, UniProt Q92FL9 1-271, K215A;W216A)
T1 sequence: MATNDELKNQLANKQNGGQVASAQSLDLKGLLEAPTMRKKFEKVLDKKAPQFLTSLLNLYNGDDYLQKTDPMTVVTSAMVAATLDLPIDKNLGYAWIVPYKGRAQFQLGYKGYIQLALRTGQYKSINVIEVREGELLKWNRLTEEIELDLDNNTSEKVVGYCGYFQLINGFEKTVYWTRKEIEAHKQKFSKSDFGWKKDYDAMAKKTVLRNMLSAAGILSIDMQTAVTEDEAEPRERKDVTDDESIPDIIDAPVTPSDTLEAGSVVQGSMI

LiRecT V98W = molecular target: T2, LiRecT V98W (Listeria innocua CLIP 11262, UniProt Q92FL9 1-271, V98W)
T2 sequence: T1 sequence with V98W, A215K, A216W

LiRecT V98A/Y100A = molecular target: T3, LiRecT V98A/Y100A (Listeria innocua CLIP 11262, UniProt Q92FL9 1-271, V98A;Y100A)
T3 sequence: T1 sequence with V98A, Y100A, A215K, A216W

LiRecT Q107A = molecular target: T4, LiRecT Q107A (Listeria innocua CLIP 11262, UniProt Q92FL9 1-271, Q107A)
T4 sequence: T1 sequence with Q107A, A215K, A216W

LiRecT Y100A = molecular target: T5, LiRecT Y100A (Listeria innocua CLIP 11262, UniProt Q92FL9 1-271, Y100A)
T5 sequence: T1 sequence with Y100A, A215K, A216W

[1] = label: 5'-Cy3;5'-Cy5, 49 bp, 1 nt 5' overhang at each end

## GCGGATGGCTTAGAGCAGAATCGCCCTGCATAGCTCGATTTTTGCGGATG (ssDNA) [Cy3-50mer]
LiRecT K215A/W216A; label: 5'-Cy3, single strand
  binding result: no binding
LiRecT V98W; label: 5'-Cy3, single strand
  binding result: binds
LiRecT V98A/Y100A; label: 5'-Cy3, single strand
  binding result: binds
LiRecT Q107A; label: 5'-Cy3, single strand
  binding result: binds
LiRecT Y100A; label: 5'-Cy3, single strand
  binding result: binds

## CCATCCGCAAAAATCGAGCTATGCAGGGCGATTCTGCTCTAAGCCATCCG (ssDNA) [Cy5-50mer]
LiRecT K215A/W216A; label: 5'-Cy5, single strand
  binding result: no binding
LiRecT V98W; label: 5'-Cy5, single strand
  binding result: binds
LiRecT V98A/Y100A; label: 5'-Cy5, single strand
  binding result: binds
LiRecT Q107A; label: 5'-Cy5, single strand
  binding result: binds
LiRecT Y100A; label: 5'-Cy5, single strand
  binding result: binds

B1: 50-mer duplex intermediate (sequential addition) (dsDNA)
DNA 1: GCGGATGGCTTAGAGCAGAATCGCCCTGCATAGCTCGATTTTTGCGGATG
DNA 2: CCATCCGCAAAAATCGAGCTATGCAGGGCGATTCTGCTCTAAGCCATCCG
LiRecT K215A/W216A; [1]
  binding result: no binding
LiRecT V98W; [1]
  binding result: binds
LiRecT V98A/Y100A; [1]
  binding result: binds
LiRecT Q107A; [1]
  binding result: binds
LiRecT Y100A; [1]
  binding result: binds
